The assay addresses SARS-CoV-2活病毒的刺突蛋白 (SARS-CoV-2) (UniProt P0DTC2). As to the kind of experiment: cell-based or functional assay.

On to CB6 (antibody), for which the 活病毒中和 ND50 (CPE抑制, Vero E6细胞) stood at 0.256 µg/mL.

The values are drawn from CN116178530A.
